Assay results: patent US20250382344A1, “Soluble GLP1/GIP/NPY2 Receptor Triple Agonists” (Boehringer Ingelheim International GmH, priority 2024, published 2025)
*1 amine or outer side, *2 acyl side, *3 side chain or, on linkers, in order; H or OH if unused. Where no end group is shown, it is not given here. Side-chain parts run from the residue outwards. [ ]: non-standard residue; d: D form. The star is where a group is joined. C20 diacid = O=C(O)CCCCCCCCCCCCCCCCCCC(=O)*; C18 diacid = O=C(O)CCCCCCCCCCCCCCCCC(=O)*; γGlu = O=C(O)[C@H](CCC(=O)[*:2])N[*:1]; εLys = N[C@@H](CCCCN[*:1])C(=O)[*:2]; dOR = not defined here; Aib = CC(C)(N)C(=O)O

T1: human GIP receptor (human, UniProt P48546 22-466)
T1 sequence (looked up): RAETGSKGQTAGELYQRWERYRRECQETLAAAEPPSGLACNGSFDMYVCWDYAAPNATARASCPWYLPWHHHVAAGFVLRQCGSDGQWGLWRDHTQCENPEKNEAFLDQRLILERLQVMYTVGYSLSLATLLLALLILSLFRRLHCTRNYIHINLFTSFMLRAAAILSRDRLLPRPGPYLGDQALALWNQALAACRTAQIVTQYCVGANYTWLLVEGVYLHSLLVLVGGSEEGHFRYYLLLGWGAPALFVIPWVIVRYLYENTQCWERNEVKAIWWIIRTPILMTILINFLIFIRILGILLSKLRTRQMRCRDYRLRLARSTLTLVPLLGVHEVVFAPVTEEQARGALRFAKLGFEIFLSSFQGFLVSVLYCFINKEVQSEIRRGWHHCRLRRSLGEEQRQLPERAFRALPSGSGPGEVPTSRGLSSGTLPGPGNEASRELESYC

T2: human neuropeptide Y2 receptor (human, UniProt P49146 1-381)
T2 sequence (looked up): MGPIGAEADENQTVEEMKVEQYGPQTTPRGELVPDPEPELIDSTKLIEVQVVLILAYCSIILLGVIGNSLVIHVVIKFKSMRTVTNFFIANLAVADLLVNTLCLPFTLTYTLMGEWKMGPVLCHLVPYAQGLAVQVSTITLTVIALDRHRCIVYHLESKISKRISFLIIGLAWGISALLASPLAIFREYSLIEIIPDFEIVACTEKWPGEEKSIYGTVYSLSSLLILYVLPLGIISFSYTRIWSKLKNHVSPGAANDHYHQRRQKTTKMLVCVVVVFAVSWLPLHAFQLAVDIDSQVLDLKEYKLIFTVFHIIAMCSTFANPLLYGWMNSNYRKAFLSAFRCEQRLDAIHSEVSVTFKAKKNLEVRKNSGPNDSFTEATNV


What was measured:
Assay in all cases: cell-based or functional assay
[1] = molecular target: human GLP-1 receptor (human, UniProt P43220 24-463)
[2] = molecular target: T1, human GIP receptor
[3] = molecular target: T2, human neuropeptide Y2 receptor

| Binder | EC50, CreLuc reporter, 100% hP [1] | EC50, CreLuc reporter, 0.5% hP [2] | EC50, CreLuc reporter, 100% hP [2] | EC50, CreLuc reporter, 0.5% hP [3] | EC50, CreLuc reporter, 0.5% hP [1] | EC50, CreLuc reporter, 100% hP [3] |
| --- | --- | --- | --- | --- | --- | --- |
| Y[Aib]EGTFTSDYSI[Aib]LEKQAQ[Aib]EFVRHLINK([γGlu-γGlu-γGlu-γGlu-γGlu-γGlu-C18 diacid])[Aib]TRQRY-NH2 [Compound 56] | 7.1 nM | 0.4 nM | 19.3 nM | – | – | – |
| Y[Aib]EGTFTSDYSI[Aib]LEKQAQ[Aib]AFVRHLINK([εLys-γGlu-γGlu-γGlu-γGlu-γGlu-C20 diacid])[Aib]TRQRY-NH2 [Compound 59] | 16.7 nM | – | – | 5.7 nM | – | – |
| YXEGTFTSDYSIXLDKQAQXAFVRHLINKXTRQRY (Aib at 2, 20, 30; aMeL at 13; Lys29 epsilon-amino acylated with C18DA-gGlu-gGlu-gGlu-gGlu-gGlu-gGlu-eLys; C-terminal amide) [Compound 67] | 0.6 nM | 0.1 nM | 1.7 nM | 18.1 nM | 0.1 nM | 112 nM |
| YXEGTFTSDYSIXLEKQAQXAFVRHLIAKXTRQRY (Aib at 2, 13, 20, 30; Lys29 epsilon-amino acylated with C18DA-gGlu-gGlu-gGlu-gGlu-gGlu-gGlu-eLys; C-terminal amide) [Compound 68] | 3.3 nM | 0.2 nM | 3 nM | 150 nM | 0.6 nM | 690 nM |
| YXEGTFTSDYSIXLEKQAQXAFVRHLINKLTRQRY (Aib at 2, 13, 20; Lys29 epsilon-amino acylated with C18DA-gGlu-gGlu-gGlu-gGlu-gGlu-OEG; C-terminal amide) [Compound 7] | 7.9 nM | – | – | 12.4 nM | – | 80.6 nM |
| Y[Aib]EGTFTSDYSI[Aib]LDQQAQ[Aib]AFVRHLINK([εLys-γGlu-γGlu-γGlu-γGlu-γGlu-C18 diacid])[Aib]TRQRY-NH2 [Compound 70] | – | – | – | 12.8 nM | 0.2 nM | 119 nM |
| YXEGTFTSDYSIXLDKQAQXAFVRHLINKXTRQRY (Aib at 2, 13, 20, 30; Lys29 epsilon-amino acylated with C20DA-gGlu-gGlu-gGlu-gGlu-gGlu-gGlu-eLys; C-terminal amide) [Compound 74] | 3.3 nM | 0.5 nM | – | 7.1 nM | 0.4 nM | 90.6 nM |
| YXEGTFTSDYSIXLDKQAQXAFIRHLINKXTRQRY (Aib at 2, 13, 20, 30; Lys29 epsilon-amino acylated with C20DA-gGlu-gGlu-gGlu-gGlu-gGlu-gGlu-eLys; C-terminal amide) [Compound 81] | 3.8 nM | 0.5 nM | – | 7.2 nM | 0.6 nM | 52.4 nM |
| YXEGAFTSDYSIXLEKQAQXAFVRHLINKXTRQRY (Aib at 2, 13, 20, 30; Lys29 epsilon-amino acylated with C18DA-gGlu-gGlu-gGlu-gGlu-gGlu-gGlu-eLys; C-terminal amide) [Compound 85] | 14.5 nM | – | – | – | 10.4 nM | 16.2 nM |
| Y[Aib]EGTFTSDYSI[Aib]LEKQAQ[Aib]AFVRHLINK([γGlu-γGlu-γGlu-γGlu-γGlu-γGlu-C18 diacid])LTRQRY-NH2 [Compound 12] | – | 0.8 nM | – | 47.6 nM | 1.8 nM | 140 nM |
| YXEGTFTSDYSIXLEKQAQXEFVRHLINKXTRQRY (Aib at 2, 13, 20, 30; Lys29 epsilon-amino acylated with C18DA-gGlu-gGlu-gGlu-gGlu-gGlu-AHX; C-terminal amide) [Compound 14] | – | 0.1 nM | – | 16.8 nM | 0.3 nM | 388 nM |
| Y[Aib]EGTFTSDYSI[Aib]LDKQAQ[Aib]AFVRHLINK([εLys-γGlu-γGlu-γGlu-γGlu-γGlu-γGlu-γGlu-C20 diacid])[Aib]TRQ[dOR]Y-NH2 (reading uncertain) [Compound 16] | 1.8 nM | 0.5 nM | 2 nM | – | 0.7 nM | 59.1 nM |
